T1: Smc4 (S. cerevisiae, UniProt Q12267 1-1418)
T1 construct: Smc4, SMC subunit of budding yeast (S. cerevisiae) condensin, wild type; Only the head domain and proximal coiled coil are resolved in the maps; also called SMC4-3xStrepII
T1 sequence: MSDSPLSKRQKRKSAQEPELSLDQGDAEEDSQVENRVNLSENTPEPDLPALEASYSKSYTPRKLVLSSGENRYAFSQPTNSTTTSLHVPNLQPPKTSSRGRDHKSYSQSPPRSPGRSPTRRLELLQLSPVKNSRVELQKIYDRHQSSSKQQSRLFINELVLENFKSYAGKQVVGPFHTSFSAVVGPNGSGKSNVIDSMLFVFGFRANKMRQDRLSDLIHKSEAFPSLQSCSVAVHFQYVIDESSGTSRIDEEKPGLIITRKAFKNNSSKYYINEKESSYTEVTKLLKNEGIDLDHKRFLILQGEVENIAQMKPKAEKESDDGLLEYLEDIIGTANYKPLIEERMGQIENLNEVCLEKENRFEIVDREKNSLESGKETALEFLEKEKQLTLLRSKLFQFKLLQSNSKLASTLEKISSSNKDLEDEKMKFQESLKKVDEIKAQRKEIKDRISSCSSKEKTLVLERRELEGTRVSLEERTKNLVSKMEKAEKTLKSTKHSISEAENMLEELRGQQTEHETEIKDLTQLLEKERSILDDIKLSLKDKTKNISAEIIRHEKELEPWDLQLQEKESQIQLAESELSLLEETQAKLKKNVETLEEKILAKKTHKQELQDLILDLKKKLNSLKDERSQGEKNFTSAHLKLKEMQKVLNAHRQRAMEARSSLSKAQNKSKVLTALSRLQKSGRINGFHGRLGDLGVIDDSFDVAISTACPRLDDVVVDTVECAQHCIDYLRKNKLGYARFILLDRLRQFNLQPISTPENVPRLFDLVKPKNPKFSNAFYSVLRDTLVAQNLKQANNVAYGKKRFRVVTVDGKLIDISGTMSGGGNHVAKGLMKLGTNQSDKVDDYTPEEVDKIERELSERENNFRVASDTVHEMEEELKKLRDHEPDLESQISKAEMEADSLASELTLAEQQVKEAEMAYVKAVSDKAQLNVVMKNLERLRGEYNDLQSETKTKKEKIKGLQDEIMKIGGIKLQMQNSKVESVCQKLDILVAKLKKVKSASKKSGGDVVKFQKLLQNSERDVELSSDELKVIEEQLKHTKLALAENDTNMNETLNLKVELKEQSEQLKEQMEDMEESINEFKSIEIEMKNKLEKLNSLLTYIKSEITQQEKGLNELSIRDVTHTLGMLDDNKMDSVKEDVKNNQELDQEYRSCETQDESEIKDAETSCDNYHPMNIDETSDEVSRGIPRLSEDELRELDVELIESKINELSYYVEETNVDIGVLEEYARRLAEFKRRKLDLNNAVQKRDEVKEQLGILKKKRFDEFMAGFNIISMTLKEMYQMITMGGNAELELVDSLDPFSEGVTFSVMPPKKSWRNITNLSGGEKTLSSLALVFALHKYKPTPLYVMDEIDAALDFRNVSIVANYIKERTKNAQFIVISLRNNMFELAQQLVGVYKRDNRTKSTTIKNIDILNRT

B1: Ycs4 (natural protein, S. cerevisiae)
chain: MSGFSLSEYLTKFQTTDRESYPRLQDPSRELNVIIDQLAVSPEQIDASPDSLEALIDLCHDFPHLTPKLQTQLSYLISSSLSNLSKDIKANLSSNVNFTEIGGLIPQWKRHLEEYGYLIQVLLTFLQDELHKVSSQSTNLNRSAKNSKNDSANVELFKRDCNQMENLLESITKLLEINLSKIFQTTPEKDLFIGLFTRPLFVLLEIEPVTKVSSLKMFIQRILAMCVKNHGQSSSIQSSLMTNLTYFLHLSVFNAELLKLLNDEYNYPQLTEDILKEISTRVFNAKDTTGPKAISNFLIKLSELSPGIMLRQMNLVITLLNNSSITLRCSVVEACGNIVAELAQDPQTMEHYKQQIAVLIELLEERFQDSNPYVRTKAIQGCSKICDLSSKFNKSKAKFTSLAVRSLQDRSSLVRRNSVKLLSKLLLKHPFKAIHGSQLRLSEWEEYLKGSESQLNSTLKKVESQETLNDTIERSLIEEEVEQDEGQCRTELEGSFNKSAELSRIENEVENINATNTSVLMKLKLMIVYYKDAISFIKEIHKSIELISNLLFSKNRNEVLESMDFLVLADAFDIELSEFGIKKMLHLVWMKGTNDEGTSISVHLIECYKQLFLTAPDSCNMQEKAAHIAKNLINLSIGASIADLASLEQLLGMMYEQKLIDQHVINILWAIYNSASKASMQKEQNVNNRDSEKGFSKEQIHGSIIILGMLSLADNEIALKGLESLLNIGLGAVGLKDLTLCRYSCLALERMVPKRSTIITKAINQELEDVAVKKLYAIIINYTKDNEYYPMCEQALSALFTISSKPDILATDLIREKTMMTFGKPEEEDSILSLEQSSRVVSLSQLLFIVGQVAIKTLVYLEKCEAEFKKRKIEAETRNGKVKNQGADVTNTTQDNGGDKELEMIGGTNEDDFTDAIQFVKENELLFGEKSILGKFCPIVEEIVSNSSRFSDPMLQRTATLCLEKLMCLSSKYCEKSLPLLITVMEKSPDPTIRSNAVLGLGDMAVCFNNLVDENTDYLYRRLHDENLMVQRTCLMTVTFLILAGQVKVKGQLGEMAKCLDNPDQGISDMCRLFFTELASKDNAIYNGFIDIFSNLSSDDLLGKESFKKIIKFLLTFIDKERHQKQLNEKLVGRLRKCETQKQWDDIAFVLNNLPYKNEDVTALLEQGFKVVSAKE
notes: Ycs4, HAWK subunit of budding yeast (S. cerevisiae) condensin, wild type

Experiments:
Details in all cases: both partners purified
Smc4 [1] = target: T1, Smc4; test: cryo-EM structure; condensin tetramer (Smc2, Smc4, Brn1, Ycs4) with 80 bp dsDNA, 5 mM ADP, 1 mM BeSO4, 10 mM NaF; TNT buffer (30 mM Tris/HCl, 60 mM NaCl, 1 mM TCEP, 2 mM MgCl2, pH 7.5); head module, Forms I and II
Ycs4 = target: B1; test: cryo-EM structure; condensin pentamer (Smc2, Smc4, Brn1, Ycs4, Ycg1) with 80 bp dsDNA, ADP and BeF3; separate maps of the head module and of Ycg1-DNA from one dataset
Smc4 [2] = target: T1, Smc4; test: as above

binding result (Smc4 [1]) | binding result (Ycs4) | binding result (Smc4 [2]) | Binder
binds | binds | – | Smc2 (natural protein, S. cerevisiae, Smc2, SMC subunit of budding yeast (S. cerevisiae) condensin, wild type; Expressed from pGAL10-SMC2 together with the other subunits; Only the head domain and proximal coiled coil are resolved in the maps) MKVEELIIDGFKSYATRTVITDWDPQFNAITGLNGSGKSNILDAICFVLGIASMSTVRASSLQDLIYKRGQAGVTKASVTIVFDNTDKSNSPIGFTNSPQISVTRQVVLGGTSKYLINGHRAPQQSVLQLFQSVQLNINNPNFLIMQGKITKVLNMKPSEILSLIEEAAGTKMFEDRREKAERTMSKKETKLQENRTLLTEEIEPKLEKLRNEKRMFLEFQSTQTDLEKTERIVVSYEYYNIKHKHTSIRETLENGETRMKMLNEFVKKTSEEIDSLNEDVEEIKLQKEKELHKEGTISKLENKENGLLNEISRLKTSLSIKVENLNDTTEKSKALESEIASSSAKLIEKKSAYANTEKDYKMVQEQLSKQRDLYKRKEELVSTLTTGISSTGAADGGYNAQLAKAKTELNEVSLAIKKSSMKMELLKKELLTIEPKLKEATKDNELNVKHVKQCQETCDKLRARLVEYGFDPSRIKDLKQREDKLKSHYYQTCKNSEYLKRRVTNLEFNYTKPYPNFEASFVHGVVGQLFQIDNDNIRYATALQTCAGGRLFNVVVQDSQTATQLLERGRLRKRVTIIPLDKIYTRPISSQVLDLAKKIAPGKVELAINLIRFDESITKAMEFIFGNSLICEDPETAKKITFHPKIRARSITLQGDVYDPEGTLSGGSRNTSESLLVDIQKYNQIQKQIETIQADLNHVTEELQTQYATSQKTKTIQSDLNLSLHKLDLAKRNLDANPSSQIIARNEEILRDIGECENEIKTKQMSLKKCQEEVSTIEKDMKEYDSDKGSKLNELKKELKLLAKELEEQESESERKYDLFQNLELETEQLSSELDSNKTLLHNHLKSIESLKLENSDLEGKIRGVEDDLVTVQTELNEEKKRLMDIDDELNELETLIKKKQDEKKSSELELQKLVHDLNKYKSNTNNMEKIIEDLRQKHEFLEDFDLVRNIVKQNEGIDLDTYRERSKQLNEKFQELRKKVNPNIMNMIENVEKKEAALKTMIKTIEKDKMKIQETISKLNEYKRETLVKTWEKVTLDFGNIFADLLPNSFAKLVPCEGKDVTQGLEVKVKLGNIWKESLIELSGGQRSLIALSLIMALLQFRPAPMYILDEVDAALDLSHTQNIGHLIKTRFKGSQFIVVSLKEGMFANANRVFRTRFQDGTSVVSIM
– | – | binds | B1
